Laboratory results: patent US12577303B2
Read-outs that look alike come from different tables or passages of the source.

Legend:
[1] = target: human Sirpα-V1 recombinant protein (human) (UniProt P78324); assay: ELISA
[2] = target: human Sirpα-V1 recombinant protein (human) (UniProt P78324); assay: ELISA; remark: listed apart in the source
[3] = target: human Sirpα-V1 recombinant protein (human) (UniProt P78324); assay: ELISA; remark: listed apart in the source
human Sirpβ-his (human) = human Sirpβ-his (human) (UniProt O00241); assay: ELISA
[4] = target: human Sirpα-V1 on CHO-K1 hSirpα+ cells (human) (UniProt P78324); assay: cell ELISA on CHO-K1 hSirpα+ cells
[5] = target: human Sirpα-V1 on CHO-K1 hSirpα+ cells (human) (UniProt P78324); assay: cell ELISA on hSirpα-v1+ cell strain
[6] = target: human T cells (expressing Sirpγ) (human) (UniProt Q9P1W8); assay: flow cytometry on human PBMC T cells
[7] = target: human Sirpα-V1-hFc (human) (UniProt P78324); assay: blocking ELISA: hSirpα (dimer) to CD47
[8] = target: human Sirpα-V1-his (human) (UniProt P78324); assay: blocking ELISA: hSirpα to CD47 (dimer)
[9] = target: human Sirpα-V1-hFc (human) (UniProt P78324); assay: blocking ELISA: hSirpα (dimer) to hCD47
[10] = target: human Sirpα-V1-his (human) (UniProt P78324); assay: blocking ELISA: hSirpα to hCD47 (dimer)
[11] = target: human T cells (expressing Sirpγ) (human) (UniProt Q9P1W8); assay: flow cytometry on human PBMC T cells, 10 µg/mL

EC50 [1]: 0.17 nM
EC50 [2]: 0.072 nM
EC50 [3]: 0.057 nM
EC50 (human Sirpβ-his (human)): 0.126 nM
EC50 [4]: 0.37 nM
EC50 [5]: 0.084 nM
T-cell binding activity (% binding) [6]: 1.79%
IC50 [7]: 3.74 nM
IC50 [8]: 4.16 nM
IC50 [9]: 4.55 nM
IC50 [10]: 4.58 nM
proportion of cells with fluorescence intensity above 10^3 [11]: 0.49%
Substance: positive control antibody 1 (Ref1, OSE-172)
